Reference: the Human Domainome abundance scans (Beltran et al. 2025)

B1: Ankyrin repeat and SAM domain-containing protein 6, residues 774 to 836; numbered along this chain, Q68DC2 (parent)
chain: DEDELTGILKKLSLEKYQPIFEEQEVDMEAFLTLTDGDLKELGIKTDGSRQQILAAISELNAG

Variants of: B1
Test: abundance fitness (aPCA) (normalised: wild type 0, dead -1); higher = more abundant; growth selection in yeast, the domain comes from the species named
Details: Homo sapiens

Abundance fitness: each site, then its substitutions
Q24: K -0.042, M -0.165, Y -0.112, G -0.128, R -0.096, A -0.04, I -0.47, H -0.261, W -0.458, T -0.257, S -0.033, F -0.25, D -0.369, P -0.925, V -0.442
G37: D 0.117, H -0.087, R -0.111, E -0.001, V -0.028, N -0.095, W -0.331, T -0.064, F -0.051, C -0.269, S -0.058, A 0.004, L -0.049, K 0.033, Y -0.138, P -0.035
T33: E -0.032, D -0.122, G -0.057, V -0.215, A -0.037, R 0.048, H -0.012, K 0.141, Q -0.071, M -0.048, F -0.642, W -0.49, N -0.053, Y -0.496, S -0.023, P -0.712, I -0.507
D27: Y -0.729, R -0.215, T 0.001, Q -0.44, I -0.827, K -0.212, P -0.483, E -0.294, V -0.988, A -0.47, F -1.25, S -0.075, W -0.857, L -0.895, C -0.376, H -0.282
D36: S -0.392, R -0.72, C -0.487, I -0.642, L -0.702, K -0.449, E -0.051, H -0.584, G -0.405, F -1.02, N -0.252, V -0.571, T -0.532, M -0.441, Q -0.565
F31: N -0.441, L -0.305, C -0.797, I -0.343, R -0.426, S -0.513, T -0.638, W -0.432, Y -0.563, V -0.342, P -0.469, K -0.362, M -0.329, A -0.37, D -0.51, G -0.443, H -0.586, E -0.384
A30: D -0.273, P -0.784, V -0.093, M -0.075, E -0.073, W -0.464, Y -0.218, I -0.164, K 0.001, H 0.037, T -0.125, C -0.02, N -0.049, S -0.015, F -0.246, L -0.089, R 0.096
L34: Y -0.095, H -0.356, E -0.526, F -0.298, D -0.654, G -0.551, R -0.523, N -0.483, I -0.627, C -0.459, A -0.403, T -0.556, P -0.561, W -0.657, S -0.457, M 0.038, V -0.345, K -0.309
E25: D -0.159, N 0.006, Q -0.204, A 0.023, T -0.412, H -0.048, W -0.449, G -0.023, I -0.281, P -0.653, V -0.21, F -0.166, L -0.293, R -0.147, S -0.08, K 0.301, M -0.038, C -0.073, Y -0.262
E29: H -0.356, G -0.162, K 0.099, N -0.32, P -0.105, L -0.51, Y -0.417, C -0.338, D -0.107, Q -0.097, T -0.123, M -0.318, F -0.648, S -0.228, V -0.334, A -0.025
D38: C -0.773, E -0.072, I -1.12, P -0.645, W -0.965, M -0.611, A -0.49, L -1.16, H -0.418, N -0.2, S -0.232, Y -1.11, V -1.06, K -0.188, R -0.074, F -1.28, Q -0.165, G -0.273, T -0.369
L32: P -0.199, N -0.295, K 0.264, V -0.103, R 0.039, Y -0.334, W -0.536, D -0.408, G -0.251, E -0.271, I -0.181, A -0.097, T -0.157, M -0.083
T35: W -0.879, E -0.067, A -0.377, R -0.057, H -0.302, M -0.65, S 0.037, D 0.037, L -0.932, F -0.779, N -0.078, V -0.687, C -0.363, Q -0.026, G -0.199, I -0.695
G43: K -0.326, R -0.616, S -0.477, H -0.556, I -1.07, L -0.655, P -0.683, T -0.675, Q -0.608, C -0.742, D -0.199, M -0.611, W -1.16, Y -1.22
V26: F -0.177, S -0.649, G -0.539, A -0.542, L -0.145, W -0.405, R -0.588, T -0.479, H -0.74, D -0.821, Q -0.589, C -0.353, E -0.532, M -0.024, I -0.056, Y -0.327, K -0.425, N -0.664
L39: R -0.599, P -0.747, H -0.751, T -0.667, F -0.616, N -0.514, Q -0.605, D -0.499, E -0.625, C -0.662, G -0.699, V -0.57, W -1, S -0.683, M -0.437, Y -0.673, A -0.59, K -0.912
K40: S -0.096, V 0.044, D -0.084, P -0.67, Y -0.115, C -0.215, A -0.121, F -0.326, E -0.041, N -0.146, H -0.286, L -0.036, G -0.31, W -0.263, T -0.138, Q -0.142
M28: I -0.202, K -0.025, A -0.055, G -0.213, R -0.159, Y -0.106, P -0.168, V -0.219, L -0.155, T 0.007, C -0.319, D -0.466, F -0.132, S -0.094, N -0.315, H -0.218, E -0.437, Q -0.29
I44: A -0.574, F -0.144, H -0.806, E -0.586, C -0.458, G -0.592
E41: H -0.045, D -0.044, R -0.049, K -0.109, W -0.498, Q 0.044, I -0.472, N -0.052, A -0.047, G -0.092, T -0.039, V -0.232, M -0.263, P -0.658, S -0.022, L -0.205, C -0.113, Y -0.321, F -0.376
E23: Q -0.17, V -0.593, P -0.95, M -0.318, S -0.168, N -0.165, R -0.06, T -0.231, Y -0.543
